“And” between values parts separate entries of the source, which are not always exact repeats. Identical values can stand only once. Starred links: 1 amine or outer side, 2 acyl side, 3 side chain; linkers in the order of their positions; H or OH if unused. Positions of bridges follow the written chain, without caps; N, C: chain ends. Non-standard residues stand in square brackets, D forms with d. Chains are numbered I, II in the order given. No end group written: not given here. *: point of attachment. TATA = O=C(CC[*:1])N1CN(C(=O)CC[*:2])CN(C(=O)CC[*:3])C1; d1Nal = N[C@H](Cc1cccc2ccccc12)C(=O)O; Hyp = O=C(O)[C@@H]1C[C@@H](O)CN1; hArg = N=C(N)NCCCC[C@H](N)C(=O)O; tBuAla = CC(C)(C)C[C@H](N)C(=O)O; Nle = CCCC[C@H](N)C(=O)O; Pent4ynoyl = C#CCCC(=O)*
Key:
[1] = target: human EphA2 protein (human), P29317; test: SPR (Biacore T200), biotinylated EphA2 captured on a streptavidin chip, peptide as analyte, 1:1 fit
[2] = target: Recombinant human CD137 (R&D systems) (human), Q07011; test: SPR (Biacore), biotinylated human CD137 captured on a streptavidin chip, BCY13272 as analyte, 1:1 fit (Scrubber)
[3] = target: CD137 on human PBMCs (anti-CD3 stimulated, co-culture assay) (human), Q07011; test: cell-based or functional assay
[4] = target: CD137 on Jurkat reporter cells (Promega CD137 luciferase reporter assay, kit CS196005), Q07011; test: cell-based or functional assay
[5] = target: human EphA2 protein (human), P29317; test: SPR (Biacore), biotinylated human EphA2 captured on a streptavidin chip, BCY13272 as analyte, 1:1 fit (Scrubber)

Sequence of human EphA2 protein (human), P29317 (P29317 25-534 limits assumed): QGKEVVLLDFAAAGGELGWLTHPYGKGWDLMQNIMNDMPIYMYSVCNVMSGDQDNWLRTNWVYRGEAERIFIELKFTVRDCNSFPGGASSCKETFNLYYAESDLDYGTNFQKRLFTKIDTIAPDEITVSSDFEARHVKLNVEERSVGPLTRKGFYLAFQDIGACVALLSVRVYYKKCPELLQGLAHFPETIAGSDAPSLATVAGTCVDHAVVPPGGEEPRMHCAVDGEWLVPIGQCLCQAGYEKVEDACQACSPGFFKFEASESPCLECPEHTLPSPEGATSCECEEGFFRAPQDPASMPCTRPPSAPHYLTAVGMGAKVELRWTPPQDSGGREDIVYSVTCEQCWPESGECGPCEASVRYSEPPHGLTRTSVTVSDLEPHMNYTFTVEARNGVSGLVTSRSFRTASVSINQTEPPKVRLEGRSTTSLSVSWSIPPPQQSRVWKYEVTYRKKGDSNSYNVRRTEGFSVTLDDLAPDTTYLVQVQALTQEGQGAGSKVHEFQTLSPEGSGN
Sequence of Recombinant human CD137 (R&D systems) (human), Q07011 (Q07011 24-186 limits assumed): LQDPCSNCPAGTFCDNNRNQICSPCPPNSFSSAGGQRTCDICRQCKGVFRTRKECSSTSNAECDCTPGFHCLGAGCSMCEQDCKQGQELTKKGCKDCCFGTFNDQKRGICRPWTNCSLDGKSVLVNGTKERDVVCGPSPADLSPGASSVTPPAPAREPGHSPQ
Sequence of CD137 on Jurkat reporter cells (Promega CD137 luciferase reporter assay, kit CS196005), Q07011 (Q07011 24-255 limits assumed): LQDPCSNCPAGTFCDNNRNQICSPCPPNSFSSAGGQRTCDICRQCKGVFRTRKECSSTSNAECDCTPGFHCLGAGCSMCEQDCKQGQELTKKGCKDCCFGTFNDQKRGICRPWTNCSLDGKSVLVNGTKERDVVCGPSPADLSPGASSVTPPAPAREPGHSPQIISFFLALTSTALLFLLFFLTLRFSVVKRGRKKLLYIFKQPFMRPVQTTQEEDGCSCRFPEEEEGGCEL
Sequence of CD137 on human PBMCs (anti-CD3 stimulated, co-culture assay) (human), Q07011 (Q07011 24-255): as the sequence (Q07011 24-255 limits assumed) above

- Kd [1]: 2 nM
- Kd [2]: < 0.0331 nM
- koff [2]: < 1e-05 s⁻¹
- kon [2]: 302000 M⁻¹ s⁻¹
- EC50 (nM) of IL-2 cytokine secretion, human PBMC co-culture with HT-1080 cells (N = 4) [3]: 0.55 nM
- EC50 (nM) of IL-2 cytokine secretion, human PBMC co-culture with MC38 cells (N = 5) [3]: 0.79 nM
- EC50 (nM), CD137 luciferase reporter assay, co-culture with EphA2 cell line A549 [4]: 0.107 nM and 0.132 nM and 0.147 nM
- EC50 (nM), CD137 luciferase reporter assay, co-culture with EphA2 cell line HT-29 [4]: 0.567 nM and 0.187 nM and 0.205 nM
- EC50 (nM), CD137 luciferase reporter assay, co-culture with EphA2 cell line PC-3 [4]: 0.245 nM and 0.0805 nM and 0.0898 nM
- Emax (fold induction over background), CD137 luciferase reporter assay, co-culture with EphA2 cell line A549 [4]: 23.6 fold and 30.2 fold and 25.7 fold
- Emax (fold induction over background), CD137 luciferase reporter assay, co-culture with EphA2 cell line HT-29 [4]: 36.5 fold and 26 fold and 36.4 fold
- Emax (fold induction over background), CD137 luciferase reporter assay, co-culture with EphA2 cell line PC-3 [4]: 44.5 fold and 44.2 fold and 53 fold
- Geo mean EC50/cell line, CD137 luciferase reporter assay, co-culture with EphA2 cell line A549 [4]: 0.127 nM
- Geo mean EC50/cell line, CD137 luciferase reporter assay, co-culture with EphA2 cell line HT-29 [4]: 0.279 nM
- Geo mean EC50/cell line, CD137 luciferase reporter assay, co-culture with EphA2 cell line PC-3 [4]: 0.117 nM
- koff [5]: 0.00102 s⁻¹
- kon [5]: 502000 M⁻¹ s⁻¹
B1: EphA2/CD137 heterotandem bicyclic peptide complex BCY13272 (peptide)
peptide 1: A[hArg]DC[Hyp]LVNPLCLEP[d1Nal]WTC
peptide 2: Ac-C[tBuAla]PE[dK](Pent4ynoyl)PYCFADPY[Nle]CA
modifications: linker I:4-I:11-I:18, II:1-II:8-II:15 via TATA; not fully specified (N-terminus, bridges); also: chain 1 N-terminus coupled to N-(acid-PEG3)-N-bis(PEG3-azide) linker, D-Lys(PYA) of chain 2 clicked (triazole) to linker azide arm, complex has a second BCY8928 copy not listed as a chain
